The record followed here is US20100055103A1 (Genentech, published 2010).

Substitutions are numbered along the chain they refer to.

The target in assay [1] is T1, Human IL-17F (R&D Systems, cat #1335-IL-025/CF) (human, UniProt Q96PD4 31-163).
T1 construct: That entry is derived from the native cDNA and may include the signal peptide; also called rhIL-17F; recombinant human IL-17F
T1 sequence: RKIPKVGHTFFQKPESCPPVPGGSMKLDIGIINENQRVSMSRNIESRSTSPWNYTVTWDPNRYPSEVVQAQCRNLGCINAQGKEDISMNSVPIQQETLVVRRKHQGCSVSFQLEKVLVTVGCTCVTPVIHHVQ
Put plainly: screening of cross-reactive clones; assay not given.

In assay [2] the target is T2, Recombinant human IL-17A/F heterodimer (human, UniProt Q16552 24-155; Q96PD4 31-163).
T2 construct: also called IL-17A/F (GNE)
Described as above.

The target in assay [3] is T3, Human IL-17F dimer (baculovirus/Hi5-expressed, His-tag removed by thrombin) (human, UniProt Q96PD4 31-163, limits assumed).
T3 construct: The N-terminal His-tag and thrombin site were introduced and then cleaved off; also called purified recombinant IL17F
T3 sequence: T1 sequence
Put plainly: X-ray crystal structure, content of the asymmetric unit.

Assay [4] has as its target T1, Human IL-17F (R&D Systems, cat …). The assay is described as follows: BIAcore SPR, IgG captured by anti-human Fc.

T2 sequence (Q16552 24-155 limits assumed, one chain of several): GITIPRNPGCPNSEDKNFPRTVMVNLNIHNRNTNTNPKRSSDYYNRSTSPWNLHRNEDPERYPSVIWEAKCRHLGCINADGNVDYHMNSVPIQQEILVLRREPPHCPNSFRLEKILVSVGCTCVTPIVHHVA

B1: YW278.15 (antibody, V domains shown)
VH: EVQLVESGGGLVQPGGSLRLSCAASGFTFTDYDISWVRQAPGKGLEWVASISPSDGYTYYADSVKGRFTISADTSKNTAYLQMNSLRAEDTAVYYCARYLYWSYVMDYWGQGTLVTVSS
VL: DIQMTQSPSSLSASVGDRVTITCRASQDVSTAVAWYQQKPGKAPKLLIYSASFLYSGVPSRFSGSGSGTDFTLTISSLQPEDFATYYCQQSYTTPPTFGQGTKVEIKR
B1: the binding result in assay [1] and in assay [2] was “binds” in each case.

B2: Fab fragment of YW 278.15.18.C55S (Fab, V domains shown)
VH: B1 VH with S54P, G56S
VL: B1 VL with T94A, P95K, P96L
notes: also called YW278.15.18C55S Fab
With B2, the binding result in assay [3] is reported as “binds”.

B3: YW278.15.18 (antibody, V domains shown)
VH: B1 VH with S54P, G56C
VL: B1 VL with T94A, P95K, P96L
With B3, the binding result in assay [4] was “binds”.

B4: YW278.15.2 (antibody, V domains shown)
VH: B1 VH with T28S, T30I, S54Y
VL: B1 VL with S91Y, T93I, T94Y, P96A
In the case of B4, the binding result in assay [4] is listed as “binds”.
